Paper PMC12343972 (Nature Communications, 2025)

What was measured:
Rad50-K60A = target: T1, Rad50-K60A (Saccharomyces cerevisiae, UniProt P12753 1-1312, K60A); assay: EMSA
T1 sequence: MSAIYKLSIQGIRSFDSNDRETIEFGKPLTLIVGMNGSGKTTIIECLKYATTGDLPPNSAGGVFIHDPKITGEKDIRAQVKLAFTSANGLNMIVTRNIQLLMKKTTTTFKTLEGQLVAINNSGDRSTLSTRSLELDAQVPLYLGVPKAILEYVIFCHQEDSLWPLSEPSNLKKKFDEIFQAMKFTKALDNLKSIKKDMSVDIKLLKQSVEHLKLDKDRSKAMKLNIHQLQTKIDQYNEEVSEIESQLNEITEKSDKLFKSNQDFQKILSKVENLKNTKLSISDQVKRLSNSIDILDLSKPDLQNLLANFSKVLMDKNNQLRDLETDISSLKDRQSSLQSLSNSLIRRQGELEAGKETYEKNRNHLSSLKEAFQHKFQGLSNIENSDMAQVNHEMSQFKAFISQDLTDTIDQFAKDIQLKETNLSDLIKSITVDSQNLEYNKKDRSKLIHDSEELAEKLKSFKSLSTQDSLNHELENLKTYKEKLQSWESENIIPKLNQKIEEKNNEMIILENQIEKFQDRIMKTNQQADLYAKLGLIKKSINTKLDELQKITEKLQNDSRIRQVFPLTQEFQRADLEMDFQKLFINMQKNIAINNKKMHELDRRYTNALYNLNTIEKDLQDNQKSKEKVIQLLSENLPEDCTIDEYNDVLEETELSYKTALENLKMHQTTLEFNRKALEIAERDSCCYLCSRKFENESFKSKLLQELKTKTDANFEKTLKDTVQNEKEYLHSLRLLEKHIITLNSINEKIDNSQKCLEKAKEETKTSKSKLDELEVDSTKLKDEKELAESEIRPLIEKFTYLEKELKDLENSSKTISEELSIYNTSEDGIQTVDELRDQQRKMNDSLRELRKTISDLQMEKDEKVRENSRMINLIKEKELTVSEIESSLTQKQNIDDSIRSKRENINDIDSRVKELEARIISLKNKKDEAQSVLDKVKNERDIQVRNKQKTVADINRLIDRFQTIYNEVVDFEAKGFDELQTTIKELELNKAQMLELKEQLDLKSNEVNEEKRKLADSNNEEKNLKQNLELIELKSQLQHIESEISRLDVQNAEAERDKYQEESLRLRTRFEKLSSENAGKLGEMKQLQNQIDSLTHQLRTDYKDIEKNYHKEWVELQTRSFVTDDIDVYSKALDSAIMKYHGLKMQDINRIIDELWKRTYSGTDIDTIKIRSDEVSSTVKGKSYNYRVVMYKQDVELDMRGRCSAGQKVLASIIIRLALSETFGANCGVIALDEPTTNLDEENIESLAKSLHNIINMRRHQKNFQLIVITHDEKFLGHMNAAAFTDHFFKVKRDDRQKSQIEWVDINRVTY

Rad50-K173A K174A = target: T2, Rad50-K173A K174A (Saccharomyces cerevisiae, UniProt P12753 1-1312, K173A;K174A); assay: EMSA
T2 sequence: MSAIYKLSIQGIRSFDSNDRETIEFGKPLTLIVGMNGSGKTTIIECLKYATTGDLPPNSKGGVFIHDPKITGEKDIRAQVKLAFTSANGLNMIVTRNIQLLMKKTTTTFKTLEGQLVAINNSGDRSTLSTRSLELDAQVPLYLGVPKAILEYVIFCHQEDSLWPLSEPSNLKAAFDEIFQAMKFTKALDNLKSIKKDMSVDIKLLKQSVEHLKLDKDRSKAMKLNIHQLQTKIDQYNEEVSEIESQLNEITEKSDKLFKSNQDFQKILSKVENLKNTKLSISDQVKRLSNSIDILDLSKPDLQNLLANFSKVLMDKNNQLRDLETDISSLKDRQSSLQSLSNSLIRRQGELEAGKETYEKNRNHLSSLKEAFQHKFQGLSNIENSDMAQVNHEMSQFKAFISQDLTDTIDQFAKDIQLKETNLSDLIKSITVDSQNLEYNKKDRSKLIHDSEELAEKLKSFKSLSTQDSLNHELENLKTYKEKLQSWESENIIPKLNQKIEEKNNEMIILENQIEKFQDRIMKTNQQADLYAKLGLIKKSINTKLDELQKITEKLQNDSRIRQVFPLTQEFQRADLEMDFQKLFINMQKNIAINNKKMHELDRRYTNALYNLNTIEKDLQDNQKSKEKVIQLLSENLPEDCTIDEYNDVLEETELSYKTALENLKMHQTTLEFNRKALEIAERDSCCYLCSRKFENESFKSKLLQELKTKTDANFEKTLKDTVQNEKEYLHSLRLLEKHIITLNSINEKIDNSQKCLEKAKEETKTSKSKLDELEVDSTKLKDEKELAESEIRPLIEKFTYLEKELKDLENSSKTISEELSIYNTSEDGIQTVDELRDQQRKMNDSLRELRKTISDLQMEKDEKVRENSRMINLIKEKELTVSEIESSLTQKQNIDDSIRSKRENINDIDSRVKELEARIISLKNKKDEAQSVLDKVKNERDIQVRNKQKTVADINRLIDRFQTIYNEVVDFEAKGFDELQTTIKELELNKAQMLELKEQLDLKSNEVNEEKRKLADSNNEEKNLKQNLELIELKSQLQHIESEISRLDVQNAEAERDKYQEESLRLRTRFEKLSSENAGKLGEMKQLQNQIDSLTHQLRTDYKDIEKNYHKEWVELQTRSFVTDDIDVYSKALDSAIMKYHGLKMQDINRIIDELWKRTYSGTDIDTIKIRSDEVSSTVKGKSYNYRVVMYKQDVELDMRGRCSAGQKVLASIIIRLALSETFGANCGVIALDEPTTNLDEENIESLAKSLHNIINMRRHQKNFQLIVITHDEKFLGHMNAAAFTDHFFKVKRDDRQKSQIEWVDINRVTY

B1: 83-mer dsDNA (EMSA) (dsDNA)
DNA 1: TTGATAAGAGGTCATTTTTGCGGATGGCTTAGAGCTTAATTGCTGAATCTGGTGCTGTAGCTCAACATGTTTTAAATATGCAA
DNA 2: TTGCATATTTAAAACATGTTGAGCTACAGCACCAGATTCAGCAATTAAGCTCTAAGCCATCCGCAAAAATGACCTCTTATCAA
Does B1 bind (Rad50-K60A)?
Result: binds

Does B1 bind (Rad50-K173A K174A)?
Result: binds
